Measurements from the supplement of paper PMC7877785.
± gives the uncertainty stated by the source.

Assay: self-splicing fitness, log relative to wild type (ln ratio); higher = more splicing; Tetrahymena group I intron in knt gene, E. coli kanamycin selection, DiMSum; sequences stand for … in CUCUCU…GGAGGGAAAAGUUAUCAGGCAUGCACCUGGUAGCUAGUCUUUAAACCAAUAGAUUGCAUCGGUUUAAAAGGCAAGACCGUCAAAUUGCGGGAAAGGGGUCAACAGCCGUUCAGUACCAAGUCUCAGGGGAAACUUUGAGAUGGCCUUGCAAAGGGUAUGGUAAUAAGCUGACGGACAUGGUCCUAACCACGCAGCCAAGUCCUAAGUCAACAGAUCUUCUGUUGAUAUGGAUGCAGUUCACAGACUAAAUGUCGGUCGGGGAAGAUGUAUUCUUCUCAUAAGAUAUAGUCGGACCUCUCCUUAAUGGGAGCUAGCGGAUGAAGUGAUGCAACACUGGAGCCGCUGGGAACUAAUUUGUAUGCGAAAGUAUAUUGAUUAGUUUUGGAGUACUCGUGGUCG
Outline: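 DiMSum derived fitness as the error-weighted combination of fold changes across replicates, kanamycin versus no kanamycin, normalised to wild type. E. coli BL21(DE3) held the library, which randomised all eight P1ex-region intron nucleotides within the knt kanamycin-resistance gene on pET-22b(+). Six replicate transformations grew overnight at 37°C or 30°C on LB agar with or without 25 μg/mL kanamycin, also containing 100 μg/mL carbenicillin, 50 μM IPTG and 0.2% rhamnose, and pooled colonies were amplicon-sequenced on an Illumina HiSeq 2500.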

Sequence	self-splicing fitness (ln) (30 °C)	self-splicing fitness (ln) (37 °C)
GUUCAGCAAUAUUACGCCUC	-0.427 ± 0.14	0.0352 ± 0.16
GUUCAGCAAUAUUACGCGUA	-0.404 ± 0.12	-0.287 ± 0.15
GUUCAGCAAUAUUACGGAAA	-0.778 ± 0.13	0.58 ± 0.19
GUUCAGCAAUAUUACGGAUA	-0.566 ± 0.13	-0.413 ± 0.1
GUUCAGCAAUAUUACGGCGU	-0.298 ± 0.085	0.138 ± 0.11
GUUCAGCAAUAUUACGUCAA	-1.86 ± 0.14	-0.976 ± 0.14
GUUCAGCAAUAUUACGUCAC	-1.78 ± 0.17	-1.27 ± 0.17
GUUCAGCAAUAUUACGUCGC	-0.991 ± 0.1	-0.347 ± 0.12
GUUCAGCAAUAUUACGUCUG	-2.67 ± 0.085	-1.54 ± 0.072
GUUCAGCAAUAUUACGUGCA	-0.645 ± 0.11	-0.382 ± 0.11
GUUCAGCAAUAUUACGUUUA	-1.21 ± 0.11	-0.233 ± 0.09
GUUGAGCAAUAUUACGACUC	0.144 ± 0.2	-0.535 ± 0.19
GUUGAGCAAUAUUACGAUUA	-1.94 ± 0.21	-1.23 ± 0.22
GUUGAGCAAUAUUACGCAUU	-2.68 ± 0.2	-2.45 ± 0.33
GUUGAGCAAUAUUACGCCUG	–	-2.05 ± 0.35
GUUGAGCAAUAUUACGCGCA	-1.02 ± 0.2	-0.636 ± 0.24
GUUGAGCAAUAUUACGCGUG	-3.36 ± 0.15	-2.66 ± 0.21
GUUGAGCAAUAUUACGCUCC	-1.81 ± 0.48	–
GUUGAGCAAUAUUACGCUGC	–	-0.666 ± 0.3
GUUGAGCAAUAUUACGCUUA	-2.55 ± 0.21	-0.787 ± 0.17
GUUGAGCAAUAUUACGGAGA	-2.47 ± 0.45	-1.8 ± 0.35
GUUGAGCAAUAUUACGGAGU	-3.52 ± 0.29	-2.7 ± 0.29
GUUGAGCAAUAUUACGGAUG	-3.56 ± 0.42	-1.75 ± 0.36
GUUGAGCAAUAUUACGGGCC	-3.53 ± 0.5	-1.82 ± 0.39
GUUGAGCAAUAUUACGGGGU	-3.56 ± 0.25	-2.42 ± 0.22
GUUGAGCAAUAUUACGGUCG	–	-1.73 ± 0.34

Sequence	self-splicing fitness (ln) (30 °C)	self-splicing fitness (ln) (37 °C)
GUUGAGCAAUAUUACGUAAC	-2.16 ± 0.42	-2.88 ± 0.3
GUUGAGCAAUAUUACGUACA	–	-2.37 ± 0.49
GUUGAGCAAUAUUACGUGGU	-3.25 ± 0.28	–
GUUGAGCAAUAUUACGUUAA	-2.83 ± 0.38	-2.34 ± 0.25
GUUGAGCAAUAUUACGUUGG	-4.19 ± 0.28	-2.01 ± 0.31
GUUGAGCAAUAUUACGUUUU	-2.91 ± 0.22	-2.88 ± 0.3
GUUUAGCAAUAUUACGAAGC	–	-1.3 ± 0.31
GUUUAGCAAUAUUACGAAUU	-2.25 ± 0.38	-0.545 ± 0.31
GUUUAGCAAUAUUACGACUC	0.0633 ± 0.12	0.248 ± 0.15
GUUUAGCAAUAUUACGAGGU	-3.03 ± 0.2	-2.03 ± 0.2
GUUUAGCAAUAUUACGCAAG	-2.45 ± 0.18	-0.942 ± 0.17
GUUUAGCAAUAUUACGCACC	-1.95 ± 0.19	-0.522 ± 0.26
GUUUAGCAAUAUUACGCGGG	-2.42 ± 0.19	-1.89 ± 0.19
GUUUAGCAAUAUUACGCUAU	–	-1.56 ± 0.29
GUUUAGCAAUAUUACGGACC	-2.41 ± 0.35	–
GUUUAGCAAUAUUACGGAGA	–	-2.24 ± 0.46
GUUUAGCAAUAUUACGGAGC	–	-2.99 ± 0.44
GUUUAGCAAUAUUACGGCCC	-1.66 ± 0.29	–
GUUUAGCAAUAUUACGGUAG	-3.53 ± 0.29	-1.72 ± 0.19
GUUUAGCAAUAUUACGGUCG	-1.35 ± 0.076	-0.636 ± 0.099
GUUUAGCAAUAUUACGUGAC	–	-0.596 ± 0.41
GUUUAGCAAUAUUACGUGGA	-2.48 ± 0.21	-2.89 ± 0.29
GUUUAGCAAUAUUACGUUGA	-3.52 ± 0.43	-2 ± 0.26
UAAAAGCAAUAUUACGAACG	0.282 ± 0.1	0.847 ± 0.12
UAAAAGCAAUAUUACGACAA	-0.243 ± 0.1	0.272 ± 0.11
UAAAAGCAAUAUUACGACUA	0.337 ± 0.089	0.733 ± 0.12
